Measurements from patent US20190241648A1 (STATEN BIOTECHNOLOGY B V, published 2019).
Ends that are not written are not given here.

Assays:
Assay in all cases: peptide microarray
[1] = target: T1, ApoC3 peptide … K51Q (human, not fully specified; cyclic constrained)
T1 peptide: ARGWVTDGFSSLQ
Excerpt: (§1) Amino acids G41 and G46 were highly conserved; substitution of G41 by E, N or Q caused a decrease of spot intensities by ˜70% or higher, whereas exchange of G46 by N was hardly tolerated and resulting in 90% reduced spot intensities. […] Amino acid positions V43, D45 and K51 were also well conserved with a clear preference for the wild type amino acids and a certain tolerance particularly for conservative exchanges by Y, F and I (V43), A, E and K (D45) as well as by R (K51). […] Replacement of V43 by Y, however, increased spot intensity by two fold. Amino acid positions W42 and 48S were poorly conserved or even variable; both positions were susceptible for only a number of amino acid exchanges, and exchange by F, S and T (W42) or by E (S48) even caused a two- to three-fold increase of spot intensity. Amino acid positions A39 and R40 were variable.
(§2) Pre: staining of one of the ApoC3 peptide microarrays was done with the secondary antibody goat anti-human IgG (Fe) DyLight680 (1:5000) and control antibody mouse monoclonal anti-HA (12CA5) DyLight800 (1:2000) to investigate background interactions of the secondary antibody with the antigen-derived peptides that could interfere with the main assays. Subsequent incubation of other ApoC3 peptide microarrays with antibody samples was followed by staining with secondary and control antibodies as well as read-out at scanning intensities of 7/7 (red/green). The additional HA peptides framing the peptide arrays were stained as internal quality control to confirm the assay quality and the peptide microarray integrity.

[2] = target: T2, ApoC3 peptide … S49Y (human, not fully specified (bridges); also: cyclic constrained)
T2 peptide: ARGWVTDGFSYLK
Excerpt: as §1, §2

[3] = target: T3, ApoC3 peptide … W42M (human, not fully specified (bridges); also: cyclic constrained)
T3 peptide: ARGMVTDGFSSLK
Excerpt: as §1, §2

[4] = target: T4, ApoC3 peptide … S49L (human, cyclic constrained)
T4 peptide: ARGWVTDGFSLLK
Excerpt: as §1, §2

[5] = target: T5, ApoC3 peptide … S49H (human, cyclic constrained)
T5 peptide: ARGWVTDGFSHLK
Excerpt: as §1, §2

[6] = target: T6, ApoC3 peptide … L50D (human, not fully specified; cyclic constrained)
T6 peptide: ARGWVTDGFSSDK
Excerpt: as §1, §2

[7] = target: T7, ApoC3 peptide … L50T (human, not fully specified (bridges); also: cyclic constrained)
T7 peptide: ARGWVTDGFSSTK
Excerpt: as §1, §2

[8] = target: T8, ApoC3 peptide … G41Y (human, also: cyclic constrained)
T8 peptide: ARYWVTDGFSSLK
Excerpt: as §1, §2

[9] = target: T9, ApoC3 peptide … G41L (human, also: cyclic constrained)
T9 peptide: ARLWVTDGFSSLK
Excerpt: as §1, §2

[10] = target: T10, ApoC3 peptide … L50E (human, not fully specified; cyclic constrained)
T10 peptide: ARGWVTDGFSSEK
Excerpt: as §1, §2

[11] = target: T11, ApoC3 peptide … G46T (human, thioether (positions not given here); also: cyclic constrained)
T11 peptide: ARGWVTDTFSSLK
Excerpt: as §1, §2

[12] = target: T12, ApoC3 peptide … T44I (human, not fully specified (bridges); also: cyclic constrained)
T12 peptide: ARGWVIDGFSSLK
Excerpt: as §1, §2

[13] = target: T13, ApoC3 peptide … W42P (human, not fully specified (bridges); also: cyclic constrained)
T13 peptide: ARGPVTDGFSSLK
Excerpt: as §1, §2

[14] = target: T14, ApoC3 peptide … R40A (human, not fully specified (bridges); also: cyclic constrained)
T14 peptide: AAGWVTDGFSSLK
Excerpt: as §1, §2

[15] = target: T15, ApoC3 peptide … A39T (human, not fully specified (bridges); also: cyclic constrained)
T15 peptide: TRGWVTDGFSSLK
Excerpt: as §1, §2

[16] = target: T16, ApoC3 peptide … L50F (human, not fully specified; cyclic constrained)
T16 peptide: ARGWVTDGFSSFK
Excerpt: as §1, §2

[17] = target: ApoC3 peptide … S48W (human, cyclic constrained)
Excerpt: as §1, §2

[18] = target: T17, ApoC3 peptide … D45A (human, not fully specified (bridges); also: cyclic constrained)
T17 peptide: ARGWVTAGFSSLK
Excerpt: as §1, §2

[19] = target: T18, ApoC3 peptide … V43P (human, not fully specified (bridges); also: cyclic constrained)
T18 peptide: ARGWPTDGFSSLK
Excerpt: as §1, §2

[20] = target: T19, ApoC3 peptide … G41E (human, also: cyclic constrained)
T19 peptide: AREWVTDGFSSLK
Excerpt: as §1, §2

[21] = target: T20, ApoC3 peptide … G46F (human, not fully specified (bridges); also: cyclic constrained)
T20 peptide: ARGWVTDFFSSLK
Excerpt: as §1, §2

[22] = target: T21, ApoC3 peptide … F47K (human, not fully specified (bridges); also: cyclic constrained)
T21 peptide: ARGWVTDGKSSLK
Excerpt: as §1, §2

[23] = target: T22, ApoC3 peptide … W42H (human, not fully specified (bridges); also: cyclic constrained)
T22 peptide: ARGHVTDGFSSLK
Excerpt: as §1, §2

[24] = target: T23, ApoC3 peptide … L50R (human, not fully specified (bridges); also: cyclic constrained)
T23 peptide: ARGWVTDGFSSRK
Excerpt: as §1, §2

[25] = target: T24, ApoC3 peptide … G41S (human, also: cyclic constrained)
T24 peptide: ARSWVTDGFSSLK
Excerpt: as §1, §2

[26] = target: T25, ApoC3 peptide … F47G (human, not fully specified (bridges); also: cyclic constrained)
T25 peptide: ARGWVTDGGSSLK
Excerpt: as §1, §2

[27] = target: T26, ApoC3 peptide … W42K (human, not fully specified (bridges); also: cyclic constrained)
T26 peptide: ARGKVTDGFSSLK
Excerpt: as §1, §2

[28] = target: T27, ApoC3 peptide … G41M (human, also: cyclic constrained)
T27 peptide: ARMWVTDGFSSLK
Excerpt: as §1, §2

[29] = target: T28, ApoC3 peptide … T44C (human, not fully specified (bridges); also: cyclic constrained)
T28 peptide: ARGWVCDGFSSLK
Excerpt: as §1, §2

[30] = target: T29, ApoC3 peptide … T44F (human, not fully specified (bridges); also: cyclic constrained)
T29 peptide: ARGWVFDGFSSLK
Excerpt: as §1, §2

- % of binding to wild-type peptide [1]: 5.47%
- % of binding to wild-type peptide [2]: 0%
- % of binding to wild-type peptide [3]: 79.4%
- % of binding to wild-type peptide [4]: 0%
- % of binding to wild-type peptide [5]: 0.56%
- % of binding to wild-type peptide [6]: 0%
- % of binding to wild-type peptide [7]: 0%
- % of binding to wild-type peptide [8]: 6.27%
- % of binding to wild-type peptide [9]: 6.27%
- % of binding to wild-type peptide [10]: 0%
- % of binding to wild-type peptide [11]: 0%
- % of binding to wild-type peptide [12]: 1.86%
- % of binding to wild-type peptide [13]: 18.6%
- % of binding to wild-type peptide [14]: 50.1%
- % of binding to wild-type peptide [15]: 88.7%
- % of binding to wild-type peptide [16]: 56.6%
- % of binding to wild-type peptide [17]: 3.49%
- % of binding to wild-type peptide [18]: 45.3%
- % of binding to wild-type peptide [19]: 1.86%
- % of binding to wild-type peptide [20]: 28.1%
- % of binding to wild-type peptide [21]: 0.86%
- % of binding to wild-type peptide [22]: 0.12%
- % of binding to wild-type peptide [23]: 48.6%
- % of binding to wild-type peptide [24]: 0%
- % of binding to wild-type peptide [25]: 18.7%
- % of binding to wild-type peptide [26]: 0%
- % of binding to wild-type peptide [27]: 136%
- % of binding to wild-type peptide [28]: 18.7%
- % of binding to wild-type peptide [29]: 0%
- % of binding to wild-type peptide [30]: 0%
B1: anti-ApoC3 antibody 14C7 (antibody, V domains shown)
VH: QVQVQESGPGLVKPSQTLSLTCTVSGGSITTNSYYWSWIRQPPGKGLEWMGAIDYSGDTYYSPSLKSRTSISRDTSKNQFTLQLTSVTPEDTAVYYCVSRIPTGEYWGQGTQVTVSS
VL: QTVVTQEPSLSVSPGGTVTLTCGLNSGSVTSSNYPDWYQQTPGQAPRLLIYNTNSRHSGVPSRFSGSISGNKAALTITGAQPEDEADYYCALYMGSDSVVFGGGTHLTVL
notes: it was detected with goat anti-human IgG (Fc); also called mAb 14C7; llama antibody 14C7
